Test results reported in patent publication US9081020B2, “Mutant proteins and methods for selecting them” (Heptares Therapeutics Limited, priority 2008, dated 2015).
Numbering of substitutions follows the chain as printed. In names and notes the source's numbering stands. Like-named read-outs stand apart in the source and are kept apart here.

Tests used:
M1 mAChR [1] = assay type: physicochemical; conditions: for stability relative to wild-type (retention of bound 3H-NMS), in words: BOG or DDM; for Stability (βOG in-situ) % L65A control / in-situ stability relative to L65A, in words: 0.82% β-octyl glucoside; for Stability (βOG in-situ) % L65A control / % 3H-NMS retained BOG / % loss/wt / mean % retained: 3 h, 4° C.; for Stability (βOG in-situ) % L65A control: % loss(control)/% loss(mutant), mean±SEM of 3; for in-situ stability relative to L65A, in words: L65A background; for % 3H-NMS retained BOG / % loss/wt / mean % retained: 0.82% BOG; for % 3H-NMS retained BOG: whole E. coli BL21 cells, single culture; for % loss/wt: % loss relative to wild-type control; for mean % retained: mean of the cultures
Procedure: This concentration was determined by analysing wild-type M1 mAChRs expressed in the inner cell membranes of intact E. Coli strain BL21 cells. The cells were pre-labelled with the radiolabelled antagonist 3H—N-methyl scopolamine and resuspended to a pre-determined cell density (Absorbance at 600 nm=2.0) in a chosen buffer (in this case 50 mM sodium phosphate, 1 mM EDTA, pH 7.5). […] The wild-type M1 mAChRs were titrated by the addition of increasing concentrations of beta octyl glucoside dissolved in the same buffer for different times (e.g. 1 h, 2 h, 3 h, 5 h, 15 h) and at different temperatures (e.g. 4° C., 15° C.). The loss of specifically-bound radioligand was then measured after recovering the cells by centrifugation (15000×g, 15 min.). In the example, the centrifugation step was performed on duplicate 1 ml aliquots of the cells. The experiment was repeated 3 times. […] It will be appreciated that the cell density, detergent concentration and other parameters of the assay may be varied to adjust the loss of activity as appropriate.
(a) A state of in-situ destabilisation of a particular membrane protein in a particular cell membrane as a result of the addition of a particular concentration of a particular detergent, can be defined by the loss of the characteristic specific ligand binding activity of the membrane protein for a particular ligand of interest in the presence of a defined concentration of a particular detergent molecule or other solubilising agent.
A preferred version of the assay is destabilisation of a membrane protein-ligand complex in a detergent-enriched membrane. The membrane protein, either in a membrane preparation, or in intact cells in-vivo or ex-vivo, is pre-incubated with a labelled version of the ligand, the label, for instance, being a radioactive label, or a fluorescent label, and the binding step preferably being allowed to proceed to equilibrium, defined as the achievement of a time-invariant level of binding. To define membrane protein-independent, or non-specific, binding the binding step is performed with the addition of a second non-labelled ligand, called the competing ligand, having an appropriate membrane protein-specific pharmacology, at a concentration sufficient fully to occupy the binding sites of the membrane protein and thereby exclude the binding of the labelled ligand. The difference between the binding of the labelled ligand in the absence and presence of the competing ligand is defined as the specific binding of the labelled ligand. Measurement of binding requires a suitable method for separating and measuring bound ligand. Characteristically, this involves centrifugation of intact cells or membranes for a time and at a centrifugal force adequate to pellet them (for instance, 15000×g for 15 min in the case of E. coli cells, or 100,000×g for plasma membrane preparations), or filtration of a membrane suspension e.g. through a suitable filter paper such as glass fibre paper e.g. GF-B or GF-C followed by counting of radioactivity. Alternatively, it might involve the measurement of an optical signal such as enhancement of fluorescence emission in the case of fluorescent ligands.
To perform the in-situ destabilisation assay, a pre-determined concentration of the detergent or other destabilising agent of choice is mixed with a membrane or cell suspension containing the pre-labelled membrane protein in an appropriate buffer composition at a particular temperature and for a particular time, determined as described below.

M1 mAChR [2] = test: thermal stability (Tm) of partially purified [3H]NMS-labelled receptors in 0.1% dodecyl-β-maltoside; assay type: physicochemical, rat; conditions: for Tm (0.1% DDM): incubation time 30 min, mean±range/SEM; for thermal stability (Tm) relative to L65A, in words: partially purified mutants; for Tm (0.1% DDM) / thermal stability (Tm) relative to L65A, in words: 0.1% DDM
Procedure: For measurements of thermal melting temperature (Tm), [3H]NMS-labelled receptors were partially purified by immobilized metal ion affinity chromatography from cultures grown from single clones expressed in E. Coli BL21 cells, essentially as described in Hulme and Curtis, 1998 (21). Tm measurements were carried out after gel-filtration of partially purified receptors into 50 mM sodium phosphate, 5 mM β-mercaptoethanol and 0.1% dodecyl-β-maltoside (DDM), using an incubation time of 30 min. Values were tabulated as mean±range/SEM of 2 or more independent measurements (Table 3).

B1: M145A: Ala-mutant in the transmembrane region of the M1 mAChR (protein)
chain: MNTSAPPAVSPNITVLAPGKGPWQVAFIGITTGLLSLATVTGNLLVLISFKVNTELKTVNNYFLLSLACADLIIGTFSMNLYTTYLLMGHWALGTLACDLWLALDYVASNASVMNLLLISFDRYFSVTRPLSYRAKRTPRRAALAIGLAWLVSFVLWAPAILFWQYLVGERTVLAGQCYIQFLSQPIITFGTAMAAFYLPVTVMCTLYWRIYRETENRARELAALQGSETPGKGGGSSSSSERSQPGAEGSPETPPGRCCRCCRAPRLLQAYSWKEEEEEDEGSMESLTSSEGEEPGSEVVIKMPMVDPEAQAPTKQPPRSSPNTVKRPTKKGRDRAGKGQKPRGKEQLAKRKTFSLVKEKKAARTLSAILLAFILTWTPYNIMVLVSTFCKDCVPETLWELGYWLCYVNSTINPMCYALCNKAFRDTFRLLLLCRWDKRRWRKIPKRPGSVHRTPSRQC
stability relative to wild-type (retention of bound 3H-NMS), in words (M1 mAChR [1]): smaller enhancements

B2: L65A/I74A: M1 mAChR double mutant, Ala mutation on L65A background (protein, UniProt P11229 1-460, looked up, variant L65A I74A)
Muscarinic acetylcholine …: B1 chain with L65A, I74A, A145M
Stability (βOG in-situ) % L65A control (M1 mAChR [1]): 51 ± 3 % L65A control | in-situ stability relative to L65A, in words (M1 mAChR [1]): significantly reduced stability | Tm (0.1% DDM) (M1 mAChR [2]): 28.8 ± 0.5 °C | thermal stability (Tm) relative to L65A, in words (M1 mAChR [2]): no change

B3: I119A: Ala-mutant in the transmembrane region of the M1 mAChR (protein)
chain: B1 chain with I119A, A145M
stability relative to wild-type (retention of bound 3H-NMS), in words (M1 mAChR [1]): reductions

B4: M384/27: Sequencing established that M384/27 is M384C (M1 mAChR) (protein, UniProt P11229 1-460, looked up, variant M384C)
Muscarinic acetylcholine …: B1 chain with A145M, M384C
% 3H-NMS retained BOG (M1 mAChR [1]; listed as M384/27 1): 63% | % 3H-NMS retained BOG (M1 mAChR [1]; listed as M384/27 2): 73% | % loss/wt (M1 mAChR [1]): 0.6 | mean % retained (M1 mAChR [1]): 68%

B5: L151A: Ala-mutant in the transmembrane region of the M1 mAChR (protein)
chain: B1 chain with A145M, L151A
stability relative to wild-type (retention of bound 3H-NMS), in words (M1 mAChR [1]): smaller enhancements

B6: L65A + L151A: M1 mAChR double mutant (protein)
chain: B1 chain with L65A, A145M, L151A
% 3H-NMS retained BOG (M1 mAChR [1]; listed as L65A + L151A 1): 70% | % 3H-NMS retained BOG (M1 mAChR [1]; listed as L65A + L151A 2): 76% | % loss/wt (M1 mAChR [1]): 0.51 | mean % retained (M1 mAChR [1]): 73%

B7: L148A: M1 mAChR mutant L148A (protein)
chain: B1 chain with A145M, L148A
% 3H-NMS retained BOG (M1 mAChR [1]; listed as L148A 1): 74% | % 3H-NMS retained BOG (M1 mAChR [1]; listed as L148A 2): 69% | % loss/wt (M1 mAChR [1]): 0.54 | mean % retained (M1 mAChR [1]): 71.5%

B8: I383/21: Sequencing established that I383/21 is I383G (M1 mAChR) (protein, UniProt P11229 1-460, looked up, variant I383G)
Muscarinic acetylcholine …: B1 chain with A145M, I383G
% 3H-NMS retained BOG (M1 mAChR [1]; listed as I383/21 1): 70% | % 3H-NMS retained BOG (M1 mAChR [1]; listed as I383/21 2): 62% | % loss/wt (M1 mAChR [1]): 0.64 | mean % retained (M1 mAChR [1]): 66%

B9: M384/40: Sequencing established that M384/40 is M384G (M1 mAChR) (protein, UniProt P11229 1-460, looked up, variant M384G)
Muscarinic acetylcholine …: B1 chain with A145M, M384G
% 3H-NMS retained BOG (M1 mAChR [1]; listed as M384/40 1): 71% | % 3H-NMS retained BOG (M1 mAChR [1]; listed as M384/40 2): 82% | % loss/wt (M1 mAChR [1]): 0.44 | mean % retained (M1 mAChR [1]): 76.5%

B10: L65A/I73A: M1 mAChR double mutant, Ala mutation on L65A background (protein, UniProt P11229 1-460, looked up, variant L65A I73A)
Muscarinic acetylcholine …: B1 chain with L65A, I73A, A145M
Stability (βOG in-situ) % L65A control (M1 mAChR [1]): 46 ± 2 % L65A control | in-situ stability relative to L65A, in words (M1 mAChR [1]): significantly reduced stability | Tm (0.1% DDM) (M1 mAChR [2]): 27.0 ± 0.5 °C | thermal stability (Tm) relative to L65A, in words (M1 mAChR [2]): reduced stability

B11: C69A: Ala-mutant in the transmembrane region of the M1 mAChR (protein)
chain: B1 chain with C69A, A145M
stability relative to wild-type (retention of bound 3H-NMS), in words (M1 mAChR [1]): reductions

B12: L65A + M145A: M1 mAChR double mutant (protein)
chain: B1 chain with L65A
% 3H-NMS retained BOG (M1 mAChR [1]; listed as L65A + M145A 1): 91% | % 3H-NMS retained BOG (M1 mAChR [1]; listed as L65A + M145A 2): 73% | % loss/wt (M1 mAChR [1]): 0.34 | mean % retained (M1 mAChR [1]): 82%

B13: L65G: M1 mAChR mutant L65G recovered by randomisation of the codon for position 65 (protein)
chain: B1 chain with L65G, A145M
% 3H-NMS retained BOG (M1 mAChR [1]; listed as L65 G 1): 49% | % 3H-NMS retained BOG (M1 mAChR [1]; listed as L65 G 2): 39% | % loss/wt (M1 mAChR [1]): 1.06 | mean % retained (M1 mAChR [1]): 44%

B14: L65A/E397A: M1 mAChR double mutant, Ala mutation on L65A background (protein, UniProt P11229 1-460, looked up, variant L65A E397A)
Muscarinic acetylcholine …: B1 chain with L65A, A145M, E397A
Stability (βOG in-situ) % L65A control (M1 mAChR [1]): 166 ± 16 % L65A control | in-situ stability relative to L65A, in words (M1 mAChR [1]): more stable | Tm (0.1% DDM) (M1 mAChR [2]): 33.6 ± 0.2 °C | thermal stability (Tm) relative to L65A, in words (M1 mAChR [2]): increased stability

B15: L65A/V409A: M1 mAChR double mutant, Ala mutation on L65A background (protein, UniProt P11229 1-460, looked up, variant L65A V409A)
Muscarinic acetylcholine …: B1 chain with L65A, A145M, V409A
Stability (βOG in-situ) % L65A control (M1 mAChR [1]): 34 ± 3 % L65A control | in-situ stability relative to L65A, in words (M1 mAChR [1]): significantly reduced stability | Tm (0.1% DDM) (M1 mAChR [2]): 26.8 °C | thermal stability (Tm) relative to L65A, in words (M1 mAChR [2]): reduced stability

B16: I73L: M1 mAChR mutant, substitution of another aliphatic amino acid at Ile 73 (protein)
chain: B1 chain with I73L, A145M
extra increment of stability (full thermal stability assay) (M1 mAChR [2]; 0.1% dodecyl maltoside): 0.9 °C
